The values below come from the nanobody polyreactivity screen of Harvey et al. (2022).

The series can be described thus: yeast display, Sf9 membrane polyspecificity reagent, FACS + sequencing; frameworks hold sequencing errors. The essentials: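 Synthetic nanobody libraries on Saccharomyces cerevisiae BJ5465 were galactose-induced for 36–48 hours, stained 1 hour at 4 °C with 10% biotinylated, detergent-solubilized Sf9 membrane reagent and enriched on streptavidin microbeads. FACS then separated cells into low and high (top ~1%) gates by anti-HA (expression) and streptavidin (reagent binding) fluorescence. Genes were colony-PCR amplified, MiSeq 2 × 250 sequenced and CDR-length filtered. A clone's polyreactivity label is that of its gate of origin.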
In the case of “QVQLVESGGGLVQAGGSLRLSCAASGRIFGIYTMGWYRQAPGKERELVAAISRSGGSTYYADSVKGRFTISRDNAKNTVYLQMNSLKPEDTAVYYCAAVPYRFPGYGFDSWGQGTQVTVSS”, the “polyreactivity (PSR sort gate)” value is on record as “high polyreactivity”.
Turning to “QVQLVESGGGLVQAGGSLRLSCAASGRIFGKNAMGWYRQAPGKERELVAAITGSGGNTYYADSVKGRFTISRDNAKNTVYLQMNSLKPEDTAVYYCNTSPRFRRYPDYDYWGQGTQVTVSS”, the “polyreactivity (PSR sort gate)” value is given as “high polyreactivity”.
As for “QVQLVESGGGLVQAGGSLRLSCAASGRIFGKYAMGWYRPAPGKERELVAAIDGSGSTNYADSVKGRFTISRDNAKNTVYLQMNSLKPEDTAVYYCATDHAQKFRYRSPREYWGEGTQVTVSS”, the entry is “low polyreactivity”; as for “QVQLVESGGGLVQAGGSLRLSCAASGRIFGKYAMGWYRQAPGKERELVAVITSRDGRTYYADSVKGRFTISRDNAKNTVYLQMNSLIPEDTAVYYCAADYWTGITPDAIGDYWGQGTQVTVSS”, “low polyreactivity”; as for “QVQLVESGGGLVQAGGSLRLSCAASGRIFGKYAMGWYRQAPGKERELVAVITSRDGRTYYADSVKGRFTISRDNAKNTVYLQMNSLKPEDTAVYYCAADLVNGHYYYWGQGTQVTVSS”, “low polyreactivity”.
As for “QVQLVESGGGLVQAGGSLRLSCAASGRIFGLNAMGWYRQAPGKETEFVAAITWRGGRTYYADSVKGRFTISRDKANKTVYLQMNSLKPEDTAVYYCAADGGSTLDYFWGQGTQVTVSS”, the entry is “low polyreactivity”; as for “QVQLVESGGGLVQAGGSLRLSCAASGRIFGLYAMGWYRQAPGKERELVATITRRGGSTYYADSVKGRFTISRDNAKNTVYLQMNSLKPEDTAVYYCNVRTLVQHHSSYSSRYDSWGQGTQVTVSS”, “high polyreactivity”; as for “QVQLVESGGGLVQAGGSLRLSCAASGRIFGLYSRGSYRQAPGKERELVAAISSRGGSTYYADSVKGRFTISRDNAKNTVYLQMNSLKPEDTAVYYCARETSYFGPSDYDYWGQGTQVTVSS”, “high polyreactivity”.
“QVQLVESGGGLVQAGGSLRLSCAASGRIFGNNVMGWYRQAPGKERELVASINYSGGSTYYADSVKGRFTISRDNAKNTVYLQMNSLKPEDTAVYYCARSYGWYPWRTSYTVGFYYWGQGTQVTVSS”: the “polyreactivity (PSR sort gate)” value is “high polyreactivity”.
For “QVQLVESGGGLVQAGGSLRLSCAASGRIFGPYAMGWSRQAPGKERELVASISYSGGSTYYADSVKGRFTISRDNAKNTVYLQMNSLKPEDTAVYYCNALSRTAWSYYLYPSTPFDYWGQGTQVTVSS”, the “polyreactivity (PSR sort gate)” value was “low polyreactivity”.
On to “QVQLVESGGGLVQAGGSLRLSCAASGRIFGPYAMGWYRQAPGKERELVASITRSGGRTYYADSVKGRFTISRDNAKNTVYLQMNSLKPEDSAVYYCAAGGFSKSYYYWGQGSQVTVSS”, for which the “polyreactivity (PSR sort gate)” value was “high polyreactivity”.
Consider “QVQLVESGGGLVQAGGSLRLSCAASGRIFGPYTMGWYRQAPGKEREFVAAITRRGGSTYYADSVKGRFTISRDNAKNTVYLQMNSLKPEDTAVYYCAAVGQKRSLGYSWGQGTQVTVSS”, for which the “polyreactivity (PSR sort gate)” value is listed as “low polyreactivity”.
In the case of “QVQLVESGGGLVQAGGSLRLSCAASGRIFGPYTMGWYRQAPGKERELVATISYSGSTTYYADSVKWRFTISRDNAKNTVYLQMNSLKPEDTAVYYCNAQYYVFITFDYWGQGTQGTVSS” it was “high polyreactivity”; in that of “QVQLVESGGGLVQAGGSLRLSCAASGRIFGQNAMGWYRQAPGKERELVAAITGSGGRTYYADSVKGRFTISRDNAKNTVYLQMNSLKPEYTAVYYCAVSVTSYYRTMDYWGQGTQVTVSS”, “low polyreactivity”.
As for “QVQLVESGGGLVQAGGSLRLSCAASGRIFGQYAMGWYRQAPGKEREFVAGISTTGGSTYYADSVKGRFTISRDNAKNTVYLQMNSLKPEDTAVYYCAVRINWSRWYHYYTYNYWGQGTQVTVSS”, the entry is “high polyreactivity”.
For “QVQLVESGGGLVQAGGSLRLSCAASGRIFGQYTMGWYRQAPGKERELVAAISRSSSTKYADSVKGRFTISRDNAKNTVYLQMNSLKPEDTAVYYCAAYVYYYGGRTYDYWGQGTQVTVSS”, the “polyreactivity (PSR sort gate)” value is given as “high polyreactivity”.
As for “QVQLVESGGGLVQAGGSLRLSCAASGRIFGRNAMGWYRQAPGKERELVAGISGRGGITYYADSVKGRFTISRDNAKNTVYLQMNSLKPEDTAVYYCAATGGDYYDFSYWGQGTQVTVSS”, the entry is “high polyreactivity”; as for “QVQLVESGGGLVQAGGSLRLSCAASGRIFGRNAMGWYRQAPGKERELVASITSGGGTNYADSVKGRFTISRDNAKNTVYLQMNSLKPEDTAVYYCAAKRHLEGYSGSIGRYYYWGQGTQVTVSS”, “low polyreactivity”; as for “QVQLVESGGGLVQAGGSLRLSCAASGRIFGRNPMGWYRQAPGKERELVAAITSRGTRTYYADSVKGRFTISRDNAKNTVYLQMISLKPEDTAVYYCNAAYYHSSSYPDYDYWGQGTQVTVSS”, “high polyreactivity”.
On to “QVQLVESGGGLVQAGGSLRLSCAASGRIFGRYAMGWYRPAPGKERELVAAISRSGGSTYYADSVKGRFTISRDNAKNTVYLHMNSLKPEDTAVYYCAAERWTRRHYSGNDYWGQGTQVTVSS”, for which the “polyreactivity (PSR sort gate)” value is “low polyreactivity”.
In the case of “QVQLVESGGGLVQAGGSLRLSCAASGRIFGRYAMGWYRQAPGKEREFVATITSRGGNTYYADSVKGRFTISRDTAKNSVYLQMNSLKPEDTAVYYCNADYLWFNFYYWGQGTQVTVSS” it was “low polyreactivity”; in that of “QVQLVESGGGLVQAGGSLRLSCAASGRIFGRYAMGWYRQAPGKERELVAAIPRNGGSTYADSVNGRFTISRDNAKNTVYLQMNILKPEDTAVYYCAKKRGGKKSGPHDYWGQGTQVTVSS”, “high polyreactivity”.
As for “QVQLVESGGGLVQAGGSLRLSCAASGRIFGRYAMGWYRQAPGKERELVAAISGGGSTNYADSVKGRFTISRDNAKNTVYLQMNSLKPEDTAVYYCAADDDWSGVEFDYWGQGTQVTVSS”, the entry is “low polyreactivity”; as for “QVQLVESGGGLVQAGGSLRLSCAASGRIFGRYAMGWYRQAPGKERELVAAISSGGNTYYADSVKGRFTISRDNAKNTVYLQMNSLKPEDTAVYYCKALYYRQPGYDYWGQGTQVTVSS”, “high polyreactivity”; as for “QVQLVESGGGLVQAGGSLRLSCAASGRIFGRYAMGWYRQAPGKERELVAAITGRGASTYYADSVKGRFTISRDNAKNTVYLQMNSLKPEDTAVYYCNAFRGAQGTDAYDWGQGTQVTVSS”, “low polyreactivity”.
As for “QVQLVESGGGLVQAGGSLRLSCAASGRIFGRYAMGWYRQAPGKERELVAGITGSSGTTYYADSVKGRFTISLDNAKNTVYLQMNSLKPEDTAVYYCAVETYWHARSHDYWGQGTQVTVSS”, the entry is “low polyreactivity”; as for “QVQLVESGGGLVQAGGSLRLSCAASGRIFGRYAMGWYRQAPGNERELVAAISRRGSRTYYADSVKGRFTISRDNAKNTVYLQMNSLKPEDTAVYYCNALTGSFKTYSFDYWGQGTQVTVSS”, “high polyreactivity”; as for “QVQLVESGGGLVQAGGSLRLSCAASGRIFGRYGMGWYRQAPGKERELVAAISRSGDRTYYADSVKGRFTISRDNAKNTVYLQMNSLKPEDTAVYYCAAYSYRYDYWGQGTQVTVSS”, “high polyreactivity”.
On to “QVQLVESGGGLVQAGGSLRLSCAASGRIFGSNTMGWFRQAPGKERELVAAITGDDSTYADSVKGRFTISRDNAKNTVYLQMNSLKPVDTAVYYCAVVWVWDVWFLVYYWGQGTQVTVSS”, for which the “polyreactivity (PSR sort gate)” value is “low polyreactivity”.
As for “QVQLVESGGGLVQAGGSLRLSCAASGRIFGSYAMGWYRQAPGKERELVAAITTDDSTNYADSVKGRFTISRDNAKNTVYLQMNSLKPEDTAVYYCNAERWDELFDSWGQVTQVTVSS”, the entry is “low polyreactivity”; as for “QVQLVESGGGLVQAGGSLRLSCAASGRIFGSYVMGWYRQAPGKERELVAAISRGGSTYYADSVKGRFTISRDNAKNTVYLQLNSLTPEDTAVYYCAAYSIYGTSYLYTQAFYYWGQGTQVTVSS”, “high polyreactivity”; as for “QVQLVESGGGLVQAGGSLRLSCAASGRIFGTHDMGWYRQAPGKESELVAAIRATSGSTYYADSVKGRFTISRDNAKNTVYLQMYSLKPEDTAVYYCAAEIWRYNSYIKYWHRVDYWGQGTQVTVSS”, “high polyreactivity”.
With “QVQLVESGGGLVQAGGSLRLSCAASGRIFGTNAMGWYRQAPGKERELVADITSGGSTNYADSVKGRFTISRDNAKNTVYLQMNSLTPEDTAVYYCAADVIGDLRWYRDEYWGQGTQVTVSS”, the “polyreactivity (PSR sort gate)” value is recorded as “low polyreactivity”.
In the case of “QVQLVESGGGLVQAGGSLRLSCAASGRIFGTNAMGWYRQAPGKERELVATITRGGGNTYYADSVKGRFTISRDNAKNTVYLQMNSLKPEDTAVYYCAAKFNRFAWYSHYDYWGQGTLVTVSS” it was “low polyreactivity”; in that of “QVQLVESGGGLVQAGGSLRLSCAASGRIFGTNAMGWYRQAPGTEMELDADITSGGSTNYADSVKGRFTISRDNAKNTVYLQMNSLKPEDTAVYYCAADVIGDLRWYREEYWGQGTQVTVSS”, “low polyreactivity”; in that of “QVQLVESGGGLVQAGGSLRLSCAASGRIFGTNTMGWYRQAPGKERELVAGISSSGDSTYYADSVKGRFTISRDNAKNTVYLQMNSLKPEDTAVYYCAARKGEFWFPQGGYNYWGQGTQVTVSS”, “low polyreactivity”.
As for “QVQLVESGGGLVQAGGSLRLSCAASGRIFGTYAMGWYRQAPGKERELVAAITQSGGRTYYADSVKGRFTISRDNAKNTVYLQMNSLKPEDTAVYYCAADSGKRRYGYYYWGQGTQVTVSS”, the entry is “high polyreactivity”; as for “QVQLVESGGGLVQAGGSLRLSCAASGRIFGTYAMGWYRQAPGKERELVARITRIGTRTYYADSVKGRFTISRDNAKNTVYLQMNSLKPEDTAVDYCAAGHYSYWVNTVKRYNTGYDYWGQGTQVTVSS”, “high polyreactivity”; as for “QVQLVESGGGLVQAGGSLRLSCAASGRIFGTYAMGWYRQAPGKERELVATISYSSGRTYYADSVKGRFTISRDNAKNTVYFQMNSLKPEDTAVYYCARRRRSGSRQYYYWGQGTQVTVSS”, “high polyreactivity”.
Regarding “QVQLVESGGGLVQAGGSLRLSCAASGRIFGTYGMGWYRQAPGKERELVAAINWRGGSTYYADSVKGRFTISRDNAKNTVYLQMNSLKPEDTAVYYCNARLYRNRLGYWGQGTQVTVSS”, the “polyreactivity (PSR sort gate)” value is “high polyreactivity”.
